From paper PMC4918383 come the findings set out here.

Test [1] has as its target actin filaments (UniProt P68135).
Test [2] has the same target. The source holds these as a separate data set.
Test [3] has the same target. The source holds these as a separate data set.

human β-cardiac myosin motor domain::GFP chimera, sequence (P12883 1-787, change not shown): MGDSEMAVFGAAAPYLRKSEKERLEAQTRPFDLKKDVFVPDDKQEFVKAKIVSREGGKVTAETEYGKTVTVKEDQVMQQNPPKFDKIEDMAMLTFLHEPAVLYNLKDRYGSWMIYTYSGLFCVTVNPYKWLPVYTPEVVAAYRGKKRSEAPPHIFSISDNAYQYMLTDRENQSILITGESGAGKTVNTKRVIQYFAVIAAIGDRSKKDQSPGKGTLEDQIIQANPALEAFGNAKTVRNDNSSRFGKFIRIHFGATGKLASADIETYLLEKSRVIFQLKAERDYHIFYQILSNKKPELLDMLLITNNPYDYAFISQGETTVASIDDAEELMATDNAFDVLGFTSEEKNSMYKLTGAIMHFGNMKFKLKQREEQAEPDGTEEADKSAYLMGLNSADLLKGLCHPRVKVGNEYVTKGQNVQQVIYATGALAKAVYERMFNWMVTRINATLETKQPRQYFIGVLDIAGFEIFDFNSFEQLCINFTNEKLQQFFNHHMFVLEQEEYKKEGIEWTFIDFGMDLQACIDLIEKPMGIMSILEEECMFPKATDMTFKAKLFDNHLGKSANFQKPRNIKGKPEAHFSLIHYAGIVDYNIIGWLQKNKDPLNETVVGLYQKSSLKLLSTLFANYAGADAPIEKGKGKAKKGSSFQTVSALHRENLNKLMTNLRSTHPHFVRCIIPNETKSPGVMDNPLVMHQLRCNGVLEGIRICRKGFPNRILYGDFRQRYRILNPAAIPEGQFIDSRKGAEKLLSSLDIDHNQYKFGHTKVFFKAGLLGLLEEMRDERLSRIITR
human β-cardiac heavy meromyosin, sequence (P12883 1-1138): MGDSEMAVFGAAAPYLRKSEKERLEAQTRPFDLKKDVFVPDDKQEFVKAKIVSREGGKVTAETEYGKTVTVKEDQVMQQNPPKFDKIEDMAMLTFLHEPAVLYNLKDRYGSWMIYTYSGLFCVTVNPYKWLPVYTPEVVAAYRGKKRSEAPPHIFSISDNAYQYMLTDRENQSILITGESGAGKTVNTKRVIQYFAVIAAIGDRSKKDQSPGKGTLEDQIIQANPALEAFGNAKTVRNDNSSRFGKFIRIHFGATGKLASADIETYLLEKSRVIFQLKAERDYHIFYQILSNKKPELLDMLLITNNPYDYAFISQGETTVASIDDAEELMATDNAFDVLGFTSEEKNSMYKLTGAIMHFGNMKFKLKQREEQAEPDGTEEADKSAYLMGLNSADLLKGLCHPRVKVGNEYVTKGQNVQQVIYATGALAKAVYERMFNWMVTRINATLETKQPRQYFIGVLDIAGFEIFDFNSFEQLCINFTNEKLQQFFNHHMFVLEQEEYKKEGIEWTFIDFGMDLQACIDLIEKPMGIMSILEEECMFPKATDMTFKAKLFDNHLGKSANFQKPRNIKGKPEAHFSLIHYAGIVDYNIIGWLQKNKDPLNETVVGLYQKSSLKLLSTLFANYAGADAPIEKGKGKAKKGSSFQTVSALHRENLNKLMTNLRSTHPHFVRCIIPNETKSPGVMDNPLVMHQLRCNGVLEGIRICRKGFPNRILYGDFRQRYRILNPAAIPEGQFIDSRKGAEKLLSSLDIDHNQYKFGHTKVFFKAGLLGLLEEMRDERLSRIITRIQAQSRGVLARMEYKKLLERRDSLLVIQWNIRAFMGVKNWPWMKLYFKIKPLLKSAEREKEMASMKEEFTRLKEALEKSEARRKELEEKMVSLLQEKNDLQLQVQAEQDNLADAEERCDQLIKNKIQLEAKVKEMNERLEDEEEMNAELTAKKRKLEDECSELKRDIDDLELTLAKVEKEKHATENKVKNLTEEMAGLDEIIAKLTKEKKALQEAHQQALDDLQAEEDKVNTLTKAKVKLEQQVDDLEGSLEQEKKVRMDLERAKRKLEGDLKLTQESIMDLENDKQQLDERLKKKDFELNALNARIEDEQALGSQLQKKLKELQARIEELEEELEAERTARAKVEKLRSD

Turning to “human β-cardiac heavy meromyosin (from UniProt P12883 1-1138) (domain or fragment)”, in the test with actin filaments [1], the actin filament velocity in the in vitro motility assay (cHMM bound directly to nitrocellulose, 32 °C), without OM and with OM titrated from 0.42 to 12.5 μM; slowed 15–20-fold by OM is 0.8 μm s^−1.
Turning to “human β-cardiac myosin motor domain::GFP chimera (from UniProt P12883 1-787) (domain or fragment)”, the sliding actin filament velocity in the in vitro motility assay (cMD held by anti-GFP, 32 °C), without OM and with OM titrated from 0.42 to 12.5 μM; slowed 15–20-fold by OM with actin filaments [2] turned out to be 0.8 μm s^−1. In the test with actin filaments [3], this substance registered a K ATPase for actin activation of the steady-state ATPase of the cMD (0.06 μM cMD, 0–100 μM actin), with 100 μM OM of 5.4 µM and a K ATPase for actin activation of the steady-state ATPase of the cMD (0.06 μM cMD, 0–100 μM actin), without OM of 22.5 µM.
